According to patent US20230265151A1, “GIP/GLP1 CO-AGONIST COMPOUNDS” (priority 2020, published 2023):
Changes are numbered by the printed parent chain.

B1: Y-Aib-EGT-αMeF(2F)-TSD-aMeV-SI-αMeL-LD-Orn-K((2-[2-(2-Amino-ethoxy)-ethoxy]-acetyl)2-(γ-Glu)-CO-(CH2)12-CO2H)AQ-Aib-EFI-(D-Glu)-αMeY-LIEGGK((2-[2-(2-Amino-ethox … (peptide)
peptide: YXEGTXTSDXSIXLDXKAQXEFIXXLIEGGKSSGAPPPS
modifications: Aib2, αMeF(2F)6, αMeV10, αMeL13, Orn16, K17(Z1), Aib20, D-Glu24, αMeY25, K31(Z1), C-term NH2; Z1=AEEA2-(γ-Glu)-CO-(CH2)12-CO2H
B2: Y-Aib-EGT-αMeF(2F)-TSD-4Pal-SI-αMeL-LD-Orn-K((2-[2-(2-Amino-ethoxy)-ethoxy]-acetyl)2-(γ-Glu)-(10-(4-carboxyphenoxy)decanoyl))AQ-Aib-EFIK((2-[2-(2-Amino-ethoxy)- … (peptide)
peptide: B1 peptide with X24K, K31P
modifications: Aib2, αMeF(2F)6, 4Pal10, αMeL13, Orn16, K17(Z1), Aib20, K24(Z1), αMeY25, C-term NH2; Z1=AEEA2-(γ-Glu)-(10-(4-carboxyphenoxy)decanoyl)
B3: Y-Aib-EGT-αMeF(2F)-TSD-4Pal-SI-αMeL-LD-Orn-K((2-[2-(2-Amino-ethoxy)-ethoxy]-acetyl)2-(γ-Glu)-CO-(CH2)12-CO2H)AQ-Aib-E-(3ClPhe)-I-(D-Glu)-αMeY-LIEGGK((2-[2-(2-Am … (peptide)
peptide: B1 peptide with F22X
modifications: Aib2, αMeF(2F)6, 4Pal10, αMeL13, Orn16, K17(Z1), Aib20, 3ClPhe22, D-Glu24, αMeY25, K31(Z1), C-term NH2; Z1=AEEA2-(γ-Glu)-CO-(CH2)12-CO2H
B4: Y-Aib-EGT-αMeF(2F)-TSD-4Pal-SI-αMeL-LD-Orn-K((2-[2-(2-Amino-ethoxy)-ethoxy]-acetyl)2-(γ-Glu)-CO-(CH2)10-CO2H)AQ-Aib-EFI-(D-Glu)-αMeY-LIEGGK((2-[2-(2-Amino-ethox … (peptide)
peptide: B1 peptide
modifications: Aib2, αMeF(2F)6, 4Pal10, αMeL13, Orn16, K17(Z1), Aib20, D-Glu24, αMeY25, K31(Z1), C-term NH2; Z1=AEEA2-(γ-Glu)-CO-(CH2)10-CO2H
B5: Y-Aib-EGT-αMeF(2F)-TSD-4Pal-Aib-I-αMeL-LD-Orn-K((2-[2-(2-Amino-ethoxy)-ethoxy]-acetyl)-(γ-Glu)-CO-(CH2)12-CO2H)AQ-Aib-EFI-(D-Glu)-αMeY-LIK((2-[2-(2-Amino-ethoxy … (peptide)
peptide: B1 peptide with S11X, E28K, K31P
modifications: Aib2, αMeF(2F)6, 4Pal10, Aib11, αMeL13, Orn16, K17(Z1), Aib20, D-Glu24, αMeY25, K28(Z1), C-term NH2; Z1=AEEA-(γ-Glu)-CO-(CH2)12-CO2H

Columns and labels:
hGLP-1R = hGLP-1R (Homo sapiens, UniProt P43220); assay: cell-based or functional assay
[1] = molecular target: human glucagon receptor (human) (UniProt P47871); assay: cell-based or functional assay
[2] = molecular target: T1, human GIP receptor (human) (UniProt P48546); assay: cell-based or functional assay
T1 sequence (looked up): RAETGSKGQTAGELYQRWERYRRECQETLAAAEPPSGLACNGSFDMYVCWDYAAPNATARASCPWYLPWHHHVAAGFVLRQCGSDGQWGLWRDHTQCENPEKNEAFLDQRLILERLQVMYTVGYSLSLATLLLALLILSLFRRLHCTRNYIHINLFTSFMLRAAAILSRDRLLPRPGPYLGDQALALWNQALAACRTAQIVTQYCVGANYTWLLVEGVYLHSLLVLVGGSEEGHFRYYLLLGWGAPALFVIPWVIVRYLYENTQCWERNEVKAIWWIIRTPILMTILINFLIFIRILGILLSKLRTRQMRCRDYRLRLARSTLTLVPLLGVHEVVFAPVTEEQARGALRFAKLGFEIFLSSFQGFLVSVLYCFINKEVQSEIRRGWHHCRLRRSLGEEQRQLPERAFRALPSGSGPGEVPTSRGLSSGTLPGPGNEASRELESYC

human GLP-1 receptor = molecular target: T2, human GLP-1 receptor (human, UniProt P43220 24-463); assay: SPA competition vs [125I]-GLP-1, hGLP-1R membranes
T2 construct: whole, on cells; also called hGLP-1R; human glucagon-like peptide-1 receptor
Method: The binding buffer contains 25 mM HEPES, pH 7.4, 2.5 mM CaCl₂, 1 mM MgCl₂, 0.1% (w/v) bacitracin, 0.003% (w/v) TWEEN®-20, and Roche Complete™ Protease Inhibitors without EDTA.
(§1) Data are analyzed using four-parameter (curve maximum, curve minimum, IC₅₀, Hill slope) nonlinear regression routines (Genedata Screener, version 12.0.4, Genedata AG, Basal, Switzerland). […] Values for Kᵢ are reported as the geometric mean, with error expressed as the standard error of the mean (SEM) and n is equal to the number of independent replicates (determined in assays performed on different days). Geometric Means are calculated as follows: […]

human GIP receptor = molecular target: T3, human GIP receptor (human, UniProt P48546 22-466); assay: SPA competition vs [125I]-GIP, hGIPR membranes
T3 construct: whole, on cells; also called hGIPR; human glucose-dependent insulinotropic polypeptide receptor
T3 sequence (looked up): T1 sequence (looked up)
Method: The binding buffer contains 25 mM HEPES, pH 7.4, 2.5 mM CaCl₂, 1 mM MgCl₂, 0.1% (w/v) bacitracin, 0.003% (w/v) TWEEN®-20, and Roche Complete™ Protease Inhibitors without EDTA. […] Plates are sealed and mixed on a plate shaker (setting 6) for 1 minute and read with a PerkinElmer Trilux MicroBeta® scintillation counter after 2.5 to 12 hours of incubation/settling time at room temperature.
as §1

| Molecule | cAMP EC50 (1.0% HSA) (hGLP-1R) [nM] | cAMP Emax (1.0% HSA) (hGLP-1R) [%] | cAMP EC50 (1.0% HSA) [1] [nM] | cAMP EC50 (1.0% HSA) [2] [nM] | cAMP Emax (1.0% HSA) [2] [%] | Ki (human GLP-1 receptor) [nM] | Ki (human GIP receptor) [nM] |
| --- | --- | --- | --- | --- | --- | --- | --- |
| Y-Aib-EGT-αMeF(2F)-TSD-4Pal-SI-αMeL-LD-Orn-IAQ-Aib-EFIK((2-[2-(2-Amino-ethoxy)-ethoxy]-acetyl)2-(γ-Glu)-CO-(CH2)12-CO2H)-αMeY-…((2-[2-(2-Amino-ethoxy)-ethoxyl-acetyl)2-(γ-Glu)-CO-(CH2)12-CO2H)-NH2 (peptide) | 40.1 | 98.8 | > 9950 | 3.55 | 95.9 | – | – |
| Y-Aib-EGT-αMeF(2F)-TSD-4Pal-SI-αMeL-LD-Orn-IAQ-Aib-K((2-[2-(2-Amino-ethoxy)-ethoxy]-acetyl)2-(γ-Glu)-CO-(CH2)12-CO2H)FIK((2-[2-(2-Amino-ethoxy)-ethoxy]-acetyl)2-(γ-Glu)-CO-(CH2)12-CO2H)-αMeY-…-NH2 (peptide) | 18.9 | 102 | > 9950 | 2.32 | 86.8 | – | – |
| Y-Aib-EGT-αMeF(2F)-TSD-4Pal-SI-αMeL-LD-Orn-IAQ-Aib-K((2-[2-(2-Amino-ethoxy)-ethoxy]-acetyl)2-CO-(CH2)12-CO2H)FIK((2-[2-(2-Amino-ethoxy)-ethoxy]-acetyl)2-CO-(CH2)12-CO2H)-αMeY-…-NH2 (peptide) | 13.1 | 105 | > 9950 | 0.866 | 86.2 | – | – |
| Y-Aib-EGT-αMeF(2F)-TSD-4Pal-SI-αMeL-LD-Orn-K((2-[2-(2-Amino-ethoxy)-ethoxy]-acetyl)2-(γ-Glu)-(4-(4-tert-butylphenyl)butanoyl))AQ-Aib-EFI-(D-Glu)-K((2-[2-(2-Amino-ethoxy)-ethoxy]-acetyl)2-(γ-Glu)-(4-(4-tert-butylphenyl)butanoyl))…-NH2 (peptide) | 12 | 104 | > 9950 | 0.0417 | 91.9 | – | – |
| Y-Aib-EGT-αMeF(2F)-TSD-4Pal-SI-αMeL-LD-Orn-K((2-[2-(2-Amino-ethoxy)-ethoxy]-acetyl)2-(γ-Glu)-(4-(4-tert-butylphenyl)butanoyl))AQ-Aib-EFIE-K((2-[2-(2-Amino-ethoxy)-ethoxy]-acetyl)2-(γ-Glu)-(4-(4-tert-butylphenyl)butanoyl))…-NH2 (peptide) | 5.79 | 102 | > 9950 | 0.0831 | 92.4 | – | – |
| Y-Aib-EGT-αMeF(2F)-TSD-4Pal-SI-αMeL-LD-Orn-K((2-[2-(2-Amino-ethoxy)-ethoxy]-acetyl)2-(γ-Glu)-CO-(CH2)12-CO2H)AQ-Aib-EFI-(D-Glu)-αMeY-LIEGGK((2-[2-(2-Amino-ethoxy)-ethoxy]-acetyl)2-(γ-Glu)-CO-(CH2)12-CO2H)-NH2 (peptide) | 119 | 87.8 | > 9950 | 2.46 | 81.2 | – | – |
| Y-Aib-EGT-αMeF(2F)-TSD-4Pal-SI-αMeL-LD-Orn-K((2-[2-(2-Amino-ethoxy)-ethoxy]-acetyl)2-(γ-Glu)-CO-(CH2)12-CO2H)AQ-Aib-EFI-(D-Glu)-αMeY-LIEGGK((2-[2-(2-Amino-ethoxy)-ethoxy]-acetyl)2-(γ-Glu)-CO-(CH2)12-CO2H)SSG-NH2 (peptide) | 66.6 | 97.3 | > 9950 | 1.22 | 75.5 | – | – |
| B1 | – | – | – | – | – | 1.16 | 0.0832 |
| B2 | – | – | – | – | – | 0.777 | 0.0314 |
| B3 | – | – | – | – | – | 1.59 | 0.132 |
| B4 | – | – | – | – | – | 2.99 | 0.145 |
| B5 | – | – | – | – | – | 2.17 | 0.0747 |
